Laboratory results taken from publication PMC11088876 (2024).

Assays:
[1] = biological target: T1, Recombinant human ActRIIB-Fc (human, UniProt Q13705 19-137); test: SPR
T1 chain: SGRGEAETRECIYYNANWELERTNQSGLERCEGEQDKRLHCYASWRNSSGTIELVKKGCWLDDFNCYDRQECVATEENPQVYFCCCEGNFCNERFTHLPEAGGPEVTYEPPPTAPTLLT

[2] = biological target: Recombinant human ActRIIA-Fc (human, UniProt P27037 20-135); test: SPR
Recombinant human ActRIIA-Fc, sequence (P27037 20-135): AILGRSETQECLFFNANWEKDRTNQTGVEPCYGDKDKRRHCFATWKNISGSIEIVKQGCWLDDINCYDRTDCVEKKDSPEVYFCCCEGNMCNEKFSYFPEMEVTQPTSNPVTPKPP

B1: Recombinant human ActE (bacterially derived, provided by R&D Systems) (ligand)
chain: TPTCEPATPLCCRRDHYVDFQELGWRDWILQPEGYQLNYCSGQCPPHLAGSPGIAASFHSAVFSLLKANNPWPASTSCCVPTARRPLSLLYLDHNGNVVKTDVPDMVVEACGCS
Kd [1]: 20 nM
Kd [2]: 5 nM
